# Test results as given in patent US20060239966A1.
# Key:
# [1] = target: GFRα2/Fc fusion protein (R&D Systems); experiment: GFRα2 ELISA: GFRα2/Fc on anti-human Fc plate, Ret-AP detection; conditioned medium of transfected HEK293 cells
# [2] = target: GFRα2/Fc fusion protein (R&D Systems); experiment: GFRα2 ELISA: GFRα2/Fc on anti-human Fc plate, Ret-AP detection; conditioned medium of transfected CHO cells
# [3] = target: GFRα2/Fc fusion protein (R&D Systems); experiment: GFRα2 ELISA: GFRα2/Fc on anti-human Fc plate, Ret-AP detection; conditioned medium of transfected HiB5 cells
# [4] = target: GFRα2/Fc fusion protein (R&D Systems); experiment: GFRα2 ELISA: GFRα2/Fc on anti-human Fc plate, Ret-AP detection; conditioned medium of transfected ARPE-19 cells
fold higher GFRα2 binding activity of conditioned medium (wt construct set to 1) [1] [fold],fold higher GFRα2 binding activity of conditioned medium (wt construct set to 1) [2] [fold],fold higher GFRα2 binding activity of conditioned medium (wt construct set to 1) [3] [fold],fold higher GFRα2 binding activity of conditioned medium (wt construct set to 1) [4] [fold],Binder
90,4.1,7.5,117,"Neurturin secreted from cells transfected with the dpro-NTN construct (wt NTN signal peptide fused to human mature NTN, no pro-region) (ligand) ARLGARPCGLRELEVRVSELGLGYASDETVLFRYCAGACEAAARVYDLGLRRLRQRRRLRRERVRAQPCCRPTAYEDEVSFLDAHSRYHTVHELSARECACV"
278,66,162,771,Neurturin secreted from cells transfected with the IgSP-NTN construct (mouse immunoglobulin heavy chain signal peptide fused to human mature NTN) (ligand) ARLGARPCGLRELEVRVSELGLGYASDETVLFRYCAGACEAAARVYDLGLRRLRQRRRLRRERVRAQPCCRPTAYEDEVSFLDAHSRYHTVHELSARECACV
